Results on 3 molecules are retold here after patent publication US20050153395A1, “Unique integrin binding site in connective tissue growth factor (CTGF)” (CHILDREN'S HOSPITAL INC., priority 2003, published 2005).

Assay [1] relates to hepatic stellate cells (HSC). In words: HSC adhesion assay on coated wells (CyQUANT fluorescence). The assay is classed as cell-based, rat. The method, then:
CTGF4 is known to be expressed in hepatic stellate cells (HSC) and to induce proliferation and extracellular matrix (ECM) production in these cells. (Williams et al., J Hepatol 32, 754-761, 2000; Paradis et al., Lab Invest 82, 767-774, 2002). The following experiments were carried out to determine if HSCs adhere to CTGF. HSCs were isolated from normal Sprague-Dowley rate by sequential perfusion with pronase/collagenase and purified by density gradient separation as described in Vyas et al. (Gastroenterology 109: 889-898, 1995).
The cells were subsequently detached using 1 mM EDTA PBS (137 mM NaCl, 2.7 mM KCl, 4.3 mM Na2HPO4, 1.4 mM KH2PO4, pH 7.3), washed twice in DMEM and resuspended in serum free medium containing 0.5% BSA. The cells-were plated (1.25×10^4 cells/well) in a 96 well plate coated with one of the following: 2 μg/ml CTGF isoform (CTGF1-4, CTGF3-4, CTGF4), 1 μg/ml laminin, or 4 μg/ml vitronectin and incubated for 20 minutes at 37° C. Subsequently the cells were washed with PBS and the adherent cells were fixed with 10% formalin and stained with CyQUANT GR dye/cell lysis buffer (Molecular Probes , Eugene, Oreg.) according to the manufacturer's instructions. The number of cells that adhered to CTGF isoforms or ECM protein was quantified by measuring the sample fluorescence intensity at Ex/Em: 480/520 nm using a micro-plate reader (CytoFluor™ 2350).
To determine if the CTGF-mediated HSC adhesion was carried out through integrin receptors, the experiment described above were carried out in the presence and absence of 10 mM EDTA. […] It is widely believed that Mn^2+ induces conformational shifts that mimic the physiological activation of β1 and β3 integrins (Roberts et al., J Biol Chem 278: 1975-1985, 2003, van der Pauw et al., J Periodontal Res 37: 317-323, 2002) as Mn^2+-induced activation leads to enhanced ligand-binding affinity and cell adhesion (Mould et al., J Biol Chem 277: 19800-19805, 2002, Loftus & Liddington J Clin Invest 100: S77-81, 1997, Lin et al., J Biol Chem 272: 14236-14243, […]). […]

The test system of assay [2] is collagen I mRNA. In words: Collagen I mRNA expression in PSCs. The class given is cell-based, rat.
The test system of assay [3] is PSCs. In words: PSC DNA synthesis, [3H]thymidine incorporation. The class given is cell-based, rat. The settings on record: 24 hours; CTGF1-4 effect in 0.1% serum, not in serum-free medium. The method, then: To measure the effect of CTGF on cell proliferation, DNA synthesis was measured by ^3H incorporation in PSCs. The cells were incubated for 24 hours with 0.2 μCi [^3H] thymidine in each well (24-well plate). The incorporation of [^3H] thymidine into PSC DNA was determined using a scintillation counter after the cells had been washed with PBS, fixed with 10% methanol, treated with cold 5% trichloroacetic acid, and lysed in 0.3 N NaOH.

Assay [4] concerns pancreatic stellate cells (PSC). The assay can be described thus: PSC adhesion assay on coated wells. The class given is cell-based, rat. The conditions noted are these: coated at 2 μg/ml. The source says:
Rat PSCs were isolated by a modification of the method described by Phillips et al., Gut; 52:677-82, 2003. Briefly, pancreatic tissue was digested in situ with 0.03% collagenase P (Roche, Indianapolis, Ind.) in HBSS by perfusion through the thoracic aorta. This protocol was approved by the Institutional Animal Care and Use Committee of Children's Research Institute, Columbus, Ohio. The tissue was pooled, minced with scissors, and then digested with 0.05% collagenase P, 0.02% protease XIV (Sigma, St. Louis), and DNase I (Roche, Indianapolis, Ind.) in HBSS. The resulting cell suspension was centrifuged in a 12% Optiprep gradient at 1400 g for 14 minutes. Stellate cells separated into a hazy band just above the interface of a the gradient and the aqueous buffer. This band was harvested, and the cells washed and resuspended in DMEM supplemented with 25 mM Hepes buffer, 10% FBS, and 100 U/ml penicillin in, 100 μg/ml streptomycin. The, cells were maintained at 37° C. in a humidified atmosphere of 5% CO2/95% air.
The ability of activated PSC to adhere to non-tissue culture plastic microtiter wells coated with recombinant CTGF1-4, CTGF3-4 or CTGF4 was investigated. The solid phase binding assay was carried out as described in Example 2. […] To assess the possibility that CTGF-mediated PSC adhesion involved cell surface integrins, the effect of divalent cations on cell adhesion was examined, as described in Example 2. […]
Because CTGF is a heparin-binding protein, this property was further investigated.
To identify the peptides that bind to PSCs, cell adhesion assays were carried out as described in Example 3.
To further investigate the peptide binding, P2 or P5 (10 μM) or vehicle buffer alone (no add) were added to PSC cell suspensions for 30 minutes at room temperature.

In assay [5] the target is integrin α5β1 (Homo sapiens, UniProt P05556+P08648). In words: Solid phase ELISA of integrin α5β1 binding. The conditions noted are these: for binding to integrin α5β1: coated at 2 μg/ml, 1 μg/ml integrin. How it is done:
In a second approach, a solid phase binding assay was used in which CTGF1-4 or FN were individually coated onto microtiter wells that were subsequently incubated with purified integrin α5β1. The presence of immobilized integrin α5β1 was detected by ELISA using an anti-integrin α5β1 antibody similar to the methods described in Example 3 above. In addition, CTGF1-4 bound to integrin α5β1 in a dose-dependent manner, with maximal binding at 2 μg/ml CTGF. This level of CTGF1-4 (2 μg/ml) binding was the same as that elicited by 2 μg/ml FN, a well known ligand of integrin α5β1. In a similar experiment, 2 μg/ml of CTGF1-4;CTGF3-4 or CTGF4 were individually precoated onto microtiter wells. Using the solid-phase assay, integrin α5β1 bound to CTGF1-4, CTGF3-4 or CTGF4 See FIG. 5 (Panel B).
To directly analyze whether α5β1 integrin binds to CTGF4, microtiter wells coated with CTGF4 (2 μg/ml) or FN (4 μg/ml) were used in an ELISA assay to detect integrin binding, as described in Example 3. For these assays, 1 μg/ml integrin α5β1, alone or in the presence of 35 μM of P2peptide (CTGF[257-272]) and 35 μM of P5 peptide (CTGF [285-291]), were added to the precoated plates. […] The binding between CTGF4 and integrin α5 β1 was blocked by peptide P5 (CTGF [285-291]) or peptide P2 (CTGF[257-272]). […]

The subject of assay [6] is PSCs. In words: PSC chemotaxis (migration) assay in culture insert. The class given is cell-based, rat. The settings on record: substance in lower chamber. The method, then: To examine whether CTGF plays a role in PSC migration, a chemotaxis assay was carried out in which the migratory behavior of PSCs in the upper chamber of a culture insert was assessed following addition of CTGF to the lower chamber. […] PSC migration was also promoted by FN, PDGF or TGF-β1.

integrin α5β1, sequence (P08648 42-894 limits assumed): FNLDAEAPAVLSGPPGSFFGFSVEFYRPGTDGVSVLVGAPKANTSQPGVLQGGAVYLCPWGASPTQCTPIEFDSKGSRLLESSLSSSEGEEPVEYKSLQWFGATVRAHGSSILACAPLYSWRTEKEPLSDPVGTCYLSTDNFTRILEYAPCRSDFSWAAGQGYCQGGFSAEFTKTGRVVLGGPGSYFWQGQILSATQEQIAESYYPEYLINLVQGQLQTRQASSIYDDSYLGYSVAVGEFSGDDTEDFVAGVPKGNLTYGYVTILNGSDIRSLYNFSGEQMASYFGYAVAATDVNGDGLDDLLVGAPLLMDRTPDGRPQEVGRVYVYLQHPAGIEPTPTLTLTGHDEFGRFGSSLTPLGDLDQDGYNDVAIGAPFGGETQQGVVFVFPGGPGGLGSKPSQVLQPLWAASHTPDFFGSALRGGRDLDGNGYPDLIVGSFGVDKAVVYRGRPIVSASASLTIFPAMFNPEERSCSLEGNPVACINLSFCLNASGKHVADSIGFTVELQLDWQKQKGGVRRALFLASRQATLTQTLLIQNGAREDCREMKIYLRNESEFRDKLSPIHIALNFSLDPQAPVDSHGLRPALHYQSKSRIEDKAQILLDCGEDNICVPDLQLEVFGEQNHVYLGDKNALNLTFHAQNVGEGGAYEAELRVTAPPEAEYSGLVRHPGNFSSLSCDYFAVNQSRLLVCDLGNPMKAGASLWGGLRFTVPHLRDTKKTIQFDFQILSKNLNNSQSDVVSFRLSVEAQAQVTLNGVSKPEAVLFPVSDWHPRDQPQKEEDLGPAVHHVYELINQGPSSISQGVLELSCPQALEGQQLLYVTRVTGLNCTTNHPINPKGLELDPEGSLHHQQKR
integrin α5β1, sequence (P08648 895-1049 partner limits assumed): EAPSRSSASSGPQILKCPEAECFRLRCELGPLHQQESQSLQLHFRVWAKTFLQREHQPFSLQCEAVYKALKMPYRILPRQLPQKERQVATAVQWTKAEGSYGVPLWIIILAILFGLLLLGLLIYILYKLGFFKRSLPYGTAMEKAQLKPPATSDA
integrin α5β1, sequence (P05556 21-798): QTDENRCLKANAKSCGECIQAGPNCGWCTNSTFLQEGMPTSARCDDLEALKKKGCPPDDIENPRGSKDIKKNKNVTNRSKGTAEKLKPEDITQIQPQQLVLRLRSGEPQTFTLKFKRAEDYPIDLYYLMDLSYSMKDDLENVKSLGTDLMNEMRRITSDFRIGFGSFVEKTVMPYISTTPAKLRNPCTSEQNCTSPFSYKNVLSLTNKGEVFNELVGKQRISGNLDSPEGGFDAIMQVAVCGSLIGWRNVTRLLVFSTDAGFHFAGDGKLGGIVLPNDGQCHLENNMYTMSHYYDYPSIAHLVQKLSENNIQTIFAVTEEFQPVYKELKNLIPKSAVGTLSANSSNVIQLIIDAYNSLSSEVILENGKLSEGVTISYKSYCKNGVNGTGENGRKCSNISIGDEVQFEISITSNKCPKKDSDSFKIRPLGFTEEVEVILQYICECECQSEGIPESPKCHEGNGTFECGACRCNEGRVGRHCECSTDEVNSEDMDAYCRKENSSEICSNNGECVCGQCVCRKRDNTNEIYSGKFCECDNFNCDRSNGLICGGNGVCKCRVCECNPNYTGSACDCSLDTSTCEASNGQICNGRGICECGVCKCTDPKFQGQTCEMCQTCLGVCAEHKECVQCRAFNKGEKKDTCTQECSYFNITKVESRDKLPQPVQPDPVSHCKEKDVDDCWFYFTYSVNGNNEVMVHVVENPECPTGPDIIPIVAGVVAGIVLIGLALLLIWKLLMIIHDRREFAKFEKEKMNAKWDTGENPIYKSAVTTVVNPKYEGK

B1: Heparinase I: enzyme that acts on highly sulfated heparan sulfate proteoglycans (protein, UniProt Q05819 22-384, looked up)
Heparin lyase I: QQKKSGNIPYRVNVQADSAKQKAIIDNKWVAVGINKPYALQYDDKLRFNGKPSYRFELKAEDNSLEGYAAGETKGRTELSYSYATTNDFKKFPPSVYQNAQKLKTVYHYGKGICEQGSSRSYTFSVYIPSSFPDNATTIFAQWHGAPSRTLVATPEGEIKTLSIEEFLALYDRMIFKKNIAHDKVEKKDKDGKITYVAGKPNGWKVEQGGYPTLAFGFSKGYFYIKANSDRQWLTDKADRNNANPENSEVMKPYSSEYKTSTIAYKMPFAQFPKDCWITFDVAIDWTKYGKEANTILKPGKLDVMMTYTKNKKPQKAHIVNQQEILIGRNDDDGYYFKFGIYRVGNSTVPVTYNLSGYSETAR
Consider B1, for which the “inhibition of HSC adherence to CTGF[257-272]” value in assay [1] (peptide-coated wells, heparin 2 μg/ml) is “abrogated”. Also, in assay [1] (wells coated 2 μg/ml CTGF4, EDTA 10 mM, GRGDsp 1 mM, Echistatin 2 μM, antibody/IgG 25 μg/ml, heparin 2 μg/ml), the “inhibition of CTGF4-mediated HSC adhesion” value was “unable to adhere”. Further, the “inhibition of vitronectin-mediated HSC adhesion” value in assay [1] (wells coated 4 μg/ml vitronectin) is “adhered to vitronectin”.

B2: CTGF1-4: full length CTGF protein, 38 kDa (protein)
chain: QNCSGPCRCPDEPAPRCPAGVSLVLDGCGCCRVCAKQLGELCTERDPCDPHKGLFCDFGSPANRKIGVCTAKDGAPCIFGGTVYRSGESFQSSCKYQCTCLDGAVGCMPLCSMDVRLPSPDCPFPRRVKLPGKCCEEWVCDEPKDQTVVGPALAAYRLEDTFGPDPTMIRANCLVQTTEWSACSKTCGMGISTRVTNDNASCRLEKQSRLCMVRPCEADLEENIKKGKKCIRTPKISKPIKFELSGCTSMKTYRAKFCGVCTDGRCCTPHRTTTLPVEFKCPDGEVMKKNMMFIKTCACHYNCPGDNDIFESLYYRKMYGDMA
Take B2: the “collagen I mRNA expression in PSCs” value in assay [2] is “significantly increased”. Moreover, the “PSC proliferation (DNA synthesis)” value in assay [3] is “significantly enhanced”. The “PSC adhesion supported by the coated substance” value in assay [4] is given as “significantly promoted”. Also, in assay [5], the “binding to integrin α5β1” value was “bound”. Besides, the “binding to integrin α5β1, maximal binding at” value in assay [5] (coated protein) amounted to 2 µg/mL. Also, in assay [6], the PSC migration entry is “induced PSC migration”.

B3: CTGF3-4: C-terminal CTGF fragment comprising modules 3 and 4 (protein)
chain: AYRLEDTFGPDPTMIRANCLVQTTEWSACSKTCGMGISTRVTNDNASCRLEKQSRLCMVRPCEADLEENIKKGKKCIRTPKISKPIKFELSGCTSMKTYRAKFCGVCTDGRCCTPHRTTTLPVEFKCPDGEVMKKNMMFIKTCACHYNCPGDNDIFESLYYRKMYGDMA
Consider B3, for which the “PSC adhesion supported by the coated substance” value in assay [4] is reported as “significantly promoted”. Moreover, the “binding to integrin α5β1” value in assay [5] is on record as “bound”. Moreover, in assay [6], the PSC migration result is on record as “induced PSC migration”.
